First the molecules themselves.
B1: Pistol ribozyme (parent)
chain: GGGUCGUUGUUCCAUAAUCGCGUGGAUAUGGCACGCAAGUUUCUACCGGGCACCGUAAAUGUCCGACUGGAGCCGUUCGGGCGGCUAUAAACAGACCUCAGGCCCGAAGCGUGGCGGCACCUGCCGCCGGUGGUAAAAAAGAUCGGAAGAGCACACGUCU

Variants of B1 are the subject of this series. In words: aptazyme ON/OFF ratio, guanine; higher = stronger switching; co-transcriptional cleavage with and without guanine.
For the variant U7A U8A G9A U10G U11C C12U C13U, the “aptazyme ON/OFF ratio” value is 1.23.

With U7A U8A G9A U10G U11C C12U C13A, the “aptazyme ON/OFF ratio” value was 1.07.

Consider U7A U8A G9A U10G U11A C12G C13A, for which the “aptazyme ON/OFF ratio” value turned out to be 1.08.

Regarding U7A U8A G9A U10G U11A C12G C13G, the “aptazyme ON/OFF ratio” value turned out to be 1.15.

U7A U8A G9A U10G U11A C12G C13U: the “aptazyme ON/OFF ratio” value was determined as 1.33.

In the case of U7A U8A G9A, the “aptazyme ON/OFF ratio” value amounted to 1.87.

With U7A G9U U11C, the “aptazyme ON/OFF ratio” value was 1.15.

With U7A G9U U11G, the “aptazyme ON/OFF ratio” value is 1.36.

As to U7A G9U U11A, the “aptazyme ON/OFF ratio” value was determined as 1.27.

In the case of U7A U8A G9A U10A U11A C12U C13A, the “aptazyme ON/OFF ratio” value is 1.17.

For the variant U7A U8A G9A U10A U11A C12U C13G, the “aptazyme ON/OFF ratio” value turned out to be 1.23.

Consider U7A U8A G9A U10A U11A C12U C13U, for which the “aptazyme ON/OFF ratio” value was found to be 1.14.

U7A U8A C12U: the “aptazyme ON/OFF ratio” value was determined as 1.59.

With U7A U8A C12G, the “aptazyme ON/OFF ratio” value was determined as 1.41.

Consider U7A U8A C12A, for which the “aptazyme ON/OFF ratio” value is 1.76.

On to U7A U8A G9A U10C U11A C12G, for which the “aptazyme ON/OFF ratio” value came to 1.1.

For U7A U8A G9A U10C U11A C12U, the “aptazyme ON/OFF ratio” value was 1.17.

For U7A U8A G9A U10C U11A C12A, the “aptazyme ON/OFF ratio” value amounted to 1.08.

Regarding U7A U8A G9A U10G C13U, the “aptazyme ON/OFF ratio” value stood at 1.34.

As to U7A U8A G9A U10G C13A, the “aptazyme ON/OFF ratio” value was 1.6.

In the case of U7A U8A G9A U10G C13G, the “aptazyme ON/OFF ratio” value amounted to 1.46.

On to U7A U8A G9A C12G C13U, for which the “aptazyme ON/OFF ratio” value was found to be 1.14.

For U7A U8A G9A C12G C13G, the “aptazyme ON/OFF ratio” value amounted to 1.12.

As to U7A U8A G9A C12G C13A, the “aptazyme ON/OFF ratio” value stood at 1.09.

On to U7A U8A G9A U10C C13U, for which the “aptazyme ON/OFF ratio” value was found to be 1.09.

Consider U7A U8A G9A U10C C13A, for which the “aptazyme ON/OFF ratio” value is 1.13.

U7A U8A G9A U10C C13G: the “aptazyme ON/OFF ratio” value worked out at 1.04.

Regarding U7A U8A G9A U10C U11C C12A C13U, the “aptazyme ON/OFF ratio” value came out at 1.07.

As for U7A U8A G9A U10C U11C C12A C13G, the “aptazyme ON/OFF ratio” value is 1.04.

As for U7A U8A G9A U10C U11C C12A C13A, the “aptazyme ON/OFF ratio” value turned out to be 1.12.

With U7A U8A G9A U10A U11C C12U, the “aptazyme ON/OFF ratio” value worked out at 1.02.

In the case of U7A U8A G9A U10A U11C C12G, the “aptazyme ON/OFF ratio” value is 1.17.

As for U7A U8A G9A U10A U11C C12A, the “aptazyme ON/OFF ratio” value is 1.24.

For U7A G9U U10G U11G C12U, the “aptazyme ON/OFF ratio” value turned out to be 1.16.

With U7A G9U U10G U11G C12A, the “aptazyme ON/OFF ratio” value came to 1.13.

For U7A G9U U10G U11G C12G, the “aptazyme ON/OFF ratio” value is 1.43.

In the case of U7A U8A G9A U10A U11A C13G, the “aptazyme ON/OFF ratio” value turned out to be 1.17.

As for U7A U8A G9A U10A U11A C13A, the “aptazyme ON/OFF ratio” value is 1.16.

For U7A U8A G9A U10A U11A C13U, the “aptazyme ON/OFF ratio” value came to 1.3.

In the case of U7A U8A G9A U10C U11C C13A, the “aptazyme ON/OFF ratio” value was 1.01.

For U7A U8A G9A U10C U11C C13G, the “aptazyme ON/OFF ratio” value was 0.997.

U7A U8A G9A U10C U11C C13U: the “aptazyme ON/OFF ratio” value came out at 1.06.

Turning to U7A G9U U10G U11G C12U C13G, the “aptazyme ON/OFF ratio” value was found to be 1.15.

Take U7A G9U U10G U11G C12U C13U: the “aptazyme ON/OFF ratio” value came out at 1.51.

Turning to U7A G9U U10G U11G C12U C13A, the “aptazyme ON/OFF ratio” value was found to be 1.26.

For U7A U8A G9A U11C C12G C13U, the “aptazyme ON/OFF ratio” value was found to be 1.09.

For U7A U8A G9A U11C C12G C13A, the “aptazyme ON/OFF ratio” value was found to be 1.1.

Take U7A U8A G9A U11C C12G C13G: the “aptazyme ON/OFF ratio” value stood at 1.14.

For U7A G9U U10G U11C C12G C13U, the “aptazyme ON/OFF ratio” value came out at 1.31.

Consider U7A G9U U10G U11C C12G C13G, for which the “aptazyme ON/OFF ratio” value worked out at 1.17.

With U7A G9U U10G U11C C12G C13A, the “aptazyme ON/OFF ratio” value stood at 1.15.

With U7A U8A C13A, the “aptazyme ON/OFF ratio” value turned out to be 1.38.

For U7A U8A C13G, the “aptazyme ON/OFF ratio” value is 1.22.

In the case of U7A U8A C13U, the “aptazyme ON/OFF ratio” value amounted to 1.69.

Consider U7A G9U U11C C12U, for which the “aptazyme ON/OFF ratio” value is 1.16.

For U7A G9U U11C C12G, the “aptazyme ON/OFF ratio” value is 1.18.

As for U7A G9U U11C C12A, the “aptazyme ON/OFF ratio” value was 1.34.

Consider U7A U8A G9A U10A C12U C13A, for which the “aptazyme ON/OFF ratio” value is 1.27.

In the case of U7A U8A G9A U10A C12U C13U, the “aptazyme ON/OFF ratio” value was 1.47.

Turning to U7A U8A G9A U10A C12U C13G, the “aptazyme ON/OFF ratio” value was 1.19.

Consider U7A U8A G9A U10G C12G C13G, for which the “aptazyme ON/OFF ratio” value was 1.11.

Turning to U7A U8A G9A U10G C12G C13U, the “aptazyme ON/OFF ratio” value is 1.31.

Turning to U7A U8A G9A U10G C12G C13A, the “aptazyme ON/OFF ratio” value is 1.06.

U7A U8A G9A U10G U11C C12A C13A: the “aptazyme ON/OFF ratio” value was 1.17.

In the case of U7A U8A G9A U10G U11C C12A C13G, the “aptazyme ON/OFF ratio” value was found to be 1.14.

In the case of U7A U8A G9A U10G U11C C12A C13U, the “aptazyme ON/OFF ratio” value was determined as 1.19.

As for U7A U8A G9A U11A C12U C13U, the “aptazyme ON/OFF ratio” value is 1.22.

Consider U7A U8A G9A U11A C12U C13G, for which the “aptazyme ON/OFF ratio” value amounted to 1.23.

For the variant U7A U8A G9A U11A C12U C13A, the “aptazyme ON/OFF ratio” value was determined as 1.07.

On to U7A U8A G9A C13U, for which the “aptazyme ON/OFF ratio” value turned out to be 1.22.

Turning to U7A U8A G9A C13A, the “aptazyme ON/OFF ratio” value was 1.11.

Turning to U7A U8A G9A C13G, the “aptazyme ON/OFF ratio” value was determined as 1.11.

With U7A U8A G9A U10A C12G C13A, the “aptazyme ON/OFF ratio” value was 1.24.

Turning to U7A U8A G9A U10A C12G C13U, the “aptazyme ON/OFF ratio” value stood at 1.28.

Turning to U7A U8A G9A U10A C12G C13G, the “aptazyme ON/OFF ratio” value was determined as 1.15.

For U7A U8A G9A U10C U11G C12G, the “aptazyme ON/OFF ratio” value was found to be 1.23.

Take U7A U8A G9A U10C U11G C12A: the “aptazyme ON/OFF ratio” value was found to be 1.12.

U7A U8A G9A U10C U11G C12U: the “aptazyme ON/OFF ratio” value was determined as 1.11.

On to U7A U8A G9A U10C C12A C13U, for which the “aptazyme ON/OFF ratio” value is 1.

Regarding U7A U8A G9A U10C C12A C13G, the “aptazyme ON/OFF ratio” value is 1.03.

Take U7A U8A G9A U10C C12A C13A: the “aptazyme ON/OFF ratio” value worked out at 1.13.

Consider U7A U8A G9A U10A U11C C12A C13A, for which the “aptazyme ON/OFF ratio” value was 1.2.

Consider U7A U8A G9A U10A U11C C12A C13G, for which the “aptazyme ON/OFF ratio” value worked out at 1.14.

Take U7A U8A G9A U10A U11C C12A C13U: the “aptazyme ON/OFF ratio” value turned out to be 1.24.
